Test results as given in publication PMC3276066.

Target: Encephalitozoon cuniculi TATA box binding protein, full length (Encephalitozoon cuniculi)

## Encephalitozoon cuniculi Mot1 N-terminal domain (HEAT domain, residues 1–779) (domain or fragment)
  stoichiometry N: 1 Mot1:TBP
